Test results from the supplement of paper PMC10567573.

B1: TNXB (parent)
chain: FSEIRETSAKVNWMPPPSRADSFK
B2: PBXIP1 (parent)
chain: LQQLRARLQGLEADCVRGPDGVCL

Variants of: B1
Test: protein stability index of a GFP-peptide fusion (GPS, HEK-293T) (PSI 1-6); higher = more stable
Settings: c terminus: a fixed tail appended
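Note: lentivirally expressed fusions sorted by FACS into six bins by GFP to DsRed ratio, PSI derived from sequencing read proportions per bin multiplied by bin number.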

Protein stability index: each site, then its substitutions
D21: T 2.6 | E 3.79 | Y 3.01 | V 3.28 | H 3.13 | R 3.52 | C 2.79 | Q 3.5 | A 3.17 | W 2.45 | P 3.61 | F 2.02 | N 3.34 | G 3.52 | L 3.06 | M 3.41 | S 3.62 | I 3.05 | K 3.76
R19: D 4.25 | H 3.15 | T 3.71 | F 2.49 | Q 3.6 | K 3.6 | P 3.7 | Y 3.19 | N 3.85 | A 3.52 | L 2.65 | W 2.18 | C 3.33 | I 3.12 | M 3.12 | S 3.73 | G 3.43 | V 3.38 | E 4.2
W13: C 4.27 | G 4.15 | L 4 | D 4.8 | H 3.61 | M 3.98 | N 4.49 | K 4.55 | T 4.03 | F 3.57 | R 4.21 | V 4.17 | I 4.47 | Q 4.23 | P 4.43 | E 4.94 | A 4.11 | Y 4.06 | S 3.83
S18: I 2.46 | W 1.98 | R 3.43 | C 3.37 | P 3.42 | A 3.68 | H 3.3 | D 3.52 | G 3.51 | Q 3.64 | F 2.71 | Y 3.5 | L 2.75 | M 2.89 | T 3.16 | N 3.18 | K 3.57 | E 3.67 | V 3.32
S22: T 3.26 | L 3.22 | N 3.38 | F 2.39 | E 3.69 | C 3.29 | M 2.79 | Q 3.42 | D 3.62 | G 2.97 | V 2.94 | K 3.58 | P 3.36 | A 3.32 | Y 3.32 | R 3.95 | H 3.27 | W 2.62 | I 3.38
P15: M 3.27 | H 3.42 | K 3.33 | E 3.49 | N 3.12 | Q 3.36 | C 2.71 | S 3.15 | I 2.18 | A 3.51 | L 3.21 | R 3.21 | Y 2.22 | D 3.85 | G 3.29 | V 3.48 | F 2.46 | T 3.38 | W 2.56
M14: G 3.63 | A 3.17 | Q 3.92 | E 4.11 | Y 2.64 | I 3.11 | C 2.63 | W 2.98 | L 3.31 | D 3.91 | K 3.52 | N 3.4 | H 3.44 | S 3.92 | F 3.13 | V 2.96 | R 4.26
A20: S 3.5 | R 3.61 | N 3.27 | E 3.6 | G 3.24 | L 2.9 | W 2.92 | K 3.8 | F 2.73 | Q 3.27 | P 3.13 | V 2.46 | C 3.71 | M 2.79 | T 2.8 | H 3.45 | Y 2.93 | D 3.88 | I 3.05
P17: I 3.36 | Q 3.24 | T 3.99 | L 2.86 | A 3.65 | M 2.97 | H 3.08 | R 3.3 | Y 2.67 | D 3.84 | W 2.79 | V 3.23 | F 3.19 | G 3.81 | E 4.09 | S 3.44 | N 3.35 | C 2.81 | K 3.43
F23: L 3.91 | W 3.32 | I 3.5 | Y 3.09 | E 4.33 | P 4.55 | A 4.04 | N 4.1 | S 3.89 | M 3.82 | H 4.12 | K 4.12 | D 4.56 | T 4.06 | Q 3.58 | V 4.07 | G 3.24 | C 4.22 | R 4.44
K24: L 2.42 | T 3.37 | A 2.92 | N 3.43 | G 3.35 | W 1.69 | I 2.44 | P 3.14 | R 3.29 | C 2.94 | D 3.41 | M 2.48 | E 3.21 | Q 3.33 | H 2.73 | Y 2.64 | V 2.63 | S 3.29 | F 2.47
P16: I 3.15 | W 1.82 | F 2.67 | L 3.02 | T 3.27 | E 3.52 | Y 2.67 | K 3.33 | Q 3.23 | G 2.8 | D 3.03 | S 3.69 | R 2.87 | N 2.89 | H 3.05 | C 3.14 | A 3.05 | M 2.89 | V 3.41

Variants of: B2
Test: as above
Settings: c terminus: a fixed tail appended

Protein stability index of substitutions, site by site:
Q2: G 2.38 | P 3.05 | L 1.41 | C 3.55 | W 1.28 | M 1.74 | N 3.27 | S 2.63 | T 2.61 | Y 1.24 | R 1.82 | F 3.06 | I 1.3 | E 2.63 | K 1.38
L4: I 1.49 | S 3.01 | N 3.83 | E 3.75 | V 1.81 | M 2.03 | D 4.69 | H 3.26 | F 2.97 | Q 3.48 | T 3.18 | P 2.42 | R 3.19 | C 1.96 | W 2.65
L8: I 2.84 | D 3.58 | F 2.29 | E 5.35
R5: I 2.42 | M 1.84 | P 2.98 | D 4.08 | F 2.14 | T 3.04 | H 2.61 | N 2.87 | K 2.2 | S 2.76 | E 3.78 | G 2.78 | L 1.17 | Y 2.34 | C 1.24
R7: P 2.59 | S 2.72 | G 3.55 | N 2.93 | I 2.57 | V 2.03 | H 2.91 | Y 1.73 | K 2.28 | D 3.89 | E 4.03 | F 2.09 | W 2.28 | A 2.12 | Q 3.33 | L 3.52 | T 2.52
L1: E 5.29 | Q 3.83 | H 3.85 | S 4.1 | V 2.52 | F 1.12 | K 3.5 | A 3.3 | R 3.76 | P 4.19 | T 3.66 | C 2.92 | I 1.72 | Y 2.22 | N 2.96
A6: N 2.19 | V 2.4 | Q 1.54 | P 3.61 | G 2.84 | Y 2.03 | F 1.95 | T 3.11 | S 3.27 | R 1.32 | D 2 | W 3.19 | I 1.43 | H 2.47 | M 1.36
Q3: K 1.97 | I 1.68 | A 1.98 | P 3.53 | E 2.58 | T 1.2 | L 1.93 | R 3.08 | N 2.36 | G 2.66 | M 3.04 | Y 1.4
